± gives the half width of the 95% confidence interval.
Assays:
[1] = folding stability dG unfold from chymotrypsin proteolysis; higher = more stable
Procedure, shortened: (§1)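 Unfolding free energy was derived, per protease or combined, against a sequence-predicted unfolded-state K50 and a shared folded-state K50, starting from K50 inferred by Bayesian fitting of sequencing counts. Digestion with trypsin and chymotrypsin was carried out on designed mini-proteins under 80 residues without cysteine in a PA-tagged cDNA display construct. Only designs with AlphaFold2 dimer inter-PAE above 15 were kept.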

[2] = folding stability dG unfold from trypsin proteolysis; higher = more stable
Procedure, shortened: as §1

[3] = folding stability dG unfold (combined trypsin and chymotrypsin); higher = more stable
Procedure, shortened: as §1

Sequence | folding stability dG unfold [1] [kcal/mol] | folding stability dG unfold [2] [kcal/mol] | folding stability dG unfold [3] [kcal/mol]
SAGGSAGGSLSDLPPGVELIAVGDDVVAVRRPDGSVLVFVRERDRVFVRELSPDVSIEEALADSAGGSAGGS [r12_605_TrMRF] | 1.52 ± 0.068 | 1.32 ± 0.029 | 1.44 ± 0.057
SKWTIDIDITYYPEYGVITVTIRYPNSWEQARFDVRSFIHEAGMPIKLEDIEIEQVEGWYEITYTIRIPPSA [r9_164_TrROS] | 3.88 ± 0.13 | 3.49 ± 0.19 | 3.78 ± 0.39
SAGGSAGGEKVEKKEVKVELKIVIVVSEELREMSEEELEELLKELAAKLPGVKEVKIEILPLPESAGGSAGG [r6_710_TrROS_Hall] | 1.34 ± 0.13 | 1.04 ± 0.13 | 1.16 ± 0.13
SAGGSAGGLGWGSFKLPFEFWDPANGMPMRNSINIMVIVIPPPPPKVEVEEDPDNGKKKVTYDDSAGGSAGG [r6_926_TrROS] | 3.31 ± 0.084 | 2.67 ± 0.1 | 2.95 ± 0.46
SPNWKIVEITEMERTDGRVTIKIKIKVPDGRIYIFMPNGKIIEEVPLGDDVELTITFPPNNWPIYIFVLDSA [r9_917_TrROS] | 4.69 ± 0.19 | 3.47 ± 0.093 | 4.48 ± 0.18
SMKITATETPVGDKTTVTITVTIDPKEFPNKPPTEEFYKKIAEELMKKLGLKTYNISKTSSNTYTITIVDSA [r9_883_JUSTAS] | 2.5 ± 0.025 | 2.42 ± 0.061 | 2.5 ± 0.049
SAGMEVEILGAEVDPETGVVKVVAVGRDPVTGVLVVDEITIKGDTVEIRREVYFPNTGKKAETTATIPLSAG [r5_150_TrMRF] | 1.43 ± 0.071 | 1.66 ± 0.13 | 1.55 ± 0.12
SAGGMEIKIEKEGNKIKITIKNENGEIEEFEITLKDGKKYRIIIDKDNPNTIYIVDEKTGKTIVLKASAGGS [r16_198_TrROS_Hall] | 4.55 ± 0.11 | 4.6 ± 0.64 | 4.71 ± 0.3
SAGGSAGGSADNPDDKKKQKPKPEIKVKVEWVVIPNGFLIFEITIAGGITLTIIIPFPPNMFSAGGSAGGSA [r18_192_TrROS] | 3.09 ± 0.035 | 2 ± 0.058 | 2.84 ± 0.16
GSAGVMFGSREDIEALAAALGPDVAPTDVTYDPSGYYYYTIPLPDGTPTSLTIPPDKYSPEEVAALARRLTS [r1_279_JUSTAS] | 0.703 ± 0.15 | -0.346 ± 0.56 | 0.481 ± 0.14
SAGGSAGGMVKVYPIDPNTPPEAVVARLEKEFPDRPIKSVSVSTVGDVPVVTITFPDGLKVVVSSAGGSAGG [r6_492_JUSTAS] | 1.43 ± 0.03 | 0.975 ± 0.029 | 1.23 ± 0.072
SAGGIDLDDLPPGDIFIFIKIKMEPVKVDDPDGKEYNRMEIEIFIFRFDPPNGKIQFEPIPMEFYIRSAGGS [r8_486_TrROS] | 3.28 ± 0.064 | 2.83 ± 0.25 | 3.19 ± 0.23
SAGMARIIPNPPVIEVVRKDGSKLVIPPEEIEELRAALEAKGGPYTPEEIAEAIRKLFPDYEVSIVPASAGG [r19_46_TrMRF] | -0.0899 ± 0.17 | -0.284 ± 0.38 | -0.109 ± 0.22
SAGGSAKSIKAEELAKEIADLMQERNPNWRVEIEPQPGPGPMITVKIYHRDPNNGDQQPINTFTIRSAGGSA [r15_682_TrROS] | 0.188 ± 0.15 | 0.502 ± 0.099 | 0.442 ± 0.15
SAGGSAGGSAKKTLTVKPGQTVTVKNKKTGKTYTATVEKDKDGNLTVKLENGKTYTINLKDLSAGGSAGGSA [r18_169_TrROS_Hall] | 2.15 ± 0.078 | 0.967 ± 0.083 | 1.8 ± 0.093
SMKVKPGEKIKVTVLALFYDKETKKLYLVKAEVEATVELDEDGNLTVKVEVKKVEVVEEMPLDELKELLKSA [r9_423_TrROS_Hall] | 3.4 ± 0.067 | 2.29 ± 0.14 | 2.97 ± 0.18
SAGGSAGGSAKVKIVIKNENGEEFEIEMSEEELKKKLKPGDKVKIKIEKVNGKLKITIEKESAGGSAGGSAG [r3_86_TrROS_Hall] | 2.11 ± 0.16 | 1.17 ± 0.12 | 2.02 ± 0.28
SAGGSAGGSMKIYEVPPEVAENMSLEEIIESLVLPGYPAKAEAFEDEGPGYVLVDLFLPPELGSAGGSAGGS [r12_716_TrMRF] | 1.02 ± 0.029 | -0.666 ± 0.12 | 0.842 ± 0.13
GSMTIPVVLPPGVRLPLSELWAIAKQYGGKLTATVYDPETGTSTSVTFPGGQLGDSTMAPGERTVNVTVVGS [r1_238_JUSTAS] | 0.825 ± 0.09 | 0.527 ± 0.031 | 0.759 ± 0.076
SAGGSAGGSAGGSMIIRIETKDGKIIEIEIKEDEDKTPEEIAKELAKKYNIKKIEIFEPSAGGSAGGSAGGS [r4_116_TrROS_Hall] | 3.57 ± 0.062 | 3.27 ± 0.12 | 3.44 ± 0.096
SAGGKYVIIMFPLPPNLEVEIEYPGVPVHRTPNGSLMFQIPPNEPIRIKIKNPNGEEEELPINIFPLSAGGS [r8_72_TrROS] | 2.33 ± 0.1 | 1.77 ± 0.1 | 2.2 ± 0.2

Sequence | folding stability dG unfold [1] [kcal/mol] | folding stability dG unfold [2] [kcal/mol] | folding stability dG unfold [3] [kcal/mol]
SAGGSAGGSAKTYEVKITVTNPNGEKKEITLEVEAETEEELLAAIKALAPPGAKVEIEIREVSAGGSAGGSA [r18_60_TrROS_Hall] | 3.67 ± 0.075 | 4.33 ± 0.28 | 4 ± 0.13
SAGGSAGGEDRLLLRVEVIVGGVPFEPVLEVDHPELRELLEEGRVLVVELPGGAVGRLYAEPLASAGGSAGG [r6_478_TrMRF] | 0.704 ± 0.11 | 0.7 ± 0.049 | 0.811 ± 0.1
SAGGGPVVLTDPVKTEKSPDGTTYTLTREVFYDPSRGEPLKVRFTLTKVTNYPDGVKTETLEEKEVALSAGG [r13_596_JUSTAS] | 1.33 ± 0.19 | 0.816 ± 0.081 | 1.09 ± 0.16
SAGGSAGGSAGGMYVAVVTRPDGSRLVVETEPGEEIELFTEDGRPLGITAVAPVDEEAFSAGGSAGGSAGGS [r10_422_TrMRF] | -0.334 ± 0.18 | 0.444 ± 0.036 | 0.227 ± 0.09
SAGGSAKLTIELVISDMSPEDAEIAAENIRIELIKKGIPEEEIENVDIKVIVAPVYLDEDNNLILGSAGGSA [r15_684_TrMRF] | 0.657 ± 0.035 | 0.533 ± 0.019 | 0.694 ± 0.058
SAGGEIEILLEDGTLLRIRVELDEDGNLRVTVELFRLEPPPAPEVVVERREEREERRVLFADSAEDLSAGGS [r16_802_TrROS_Hall] | 2.27 ± 0.1 | 0.941 ± 0.06 | 1.75 ± 0.15
SAGGWITVNQIRDLAKELPPGWRIKIKIEYPGKKHEHTIPPGDPITIPPNMPPEDITRIEITEIEPYSAGGS [r16_97_TrROS] | 0.444 ± 0.18 | 0.476 ± 0.062 | 0.575 ± 0.11
SAGMEAIRKKAEELAKKGKIFKITLTGPDGIPETKILSPEEFKKFLEEFPDPEAIASVEVEAYEPGKPISAG [r5_957_JUSTAS] | 3.78 ± 0.046 | 2.35 ± 0.1 | 3.24 ± 0.1
SAGGSAGGSAGPTVASVEVLEYDPETGYLTVRIYIPDNGEWVDVKAPVGTAEEIVKAAEKSAGGSAGGSAGG [r17_111_TrMRF] | 1.49 ± 0.048 | 0.463 ± 0.077 | 1.16 ± 0.14
SAGGKTKVIVVKVKPEMTVEEIAKKLAEELKKKGKKVKVEVKVIEKLPNGELYVKVTVKDGKLTIEPSAGGS [r8_7_TrROS_Hall] | 1.42 ± 0.073 | 1.12 ± 0.085 | 1.35 ± 0.19
SAGGSAGGSAGGSVAYVAPDGDKLIVRVVRPDGSVEEKEFDSLEDLKTLPDDVPVAFLVSAGGSAGGSAGGS [r4_447_TrMRF] | -0.0498 ± 0.15 | 0.86 ± 0.034 | 0.516 ± 0.11
SAGGMTVSVTADGSSYTATVKLPDGTTLTVPFTSLEELATQVREEYEKAFPDVPLERLVLEDISPTAPSAGG [r13_887_JUSTAS] | 3.344 ± 0.021 | 1.77 ± 0.031 | 2.93 ± 0.036
SAGGSAGGSMKPLGQGDFEDPDGWKIKISMYPDGWFRIEIYDKNGKPKETIPVPANDLPDILKSAGGSAGGS [r12_664_TrROS] | 1.43 ± 0.053 | 0.664 ± 0.027 | 1.21 ± 0.064
SAMKITIEVIKLPDGYYVVRITVYDKNGEKVEERELVFSSLEDLLAALKELFPDQKVTVEIRKVTKEELSAG [r14_964_TrROS_Hall] | 4.14 ± 0.23 | 2.16 ± 0.16 | 3.77 ± 0.18
SAGGSKPEKIKVVSVEVFPDGLIKVKVKTESGYEATALIVKLPGDKYLIFLTIPANGKPFVFELPASAGGSA [r2_361_TrMRF] | 2.61 ± 0.031 | 2.36 ± 0.059 | 2.54 ± 0.072
SAGGSAGGSAKPLKKLVLLLKVKGPFEEVEKILNEEFGVKKIVAFKDPETDEVYALIYLGDPSAGGSAGGSA [r18_275_TrMRF] | 2.86 ± 0.04 | 2.23 ± 0.052 | 2.62 ± 0.085
SAGGSAGGSAGMDIPLTFTAPNADGQPVKVRVEKIIPEKGYLLVRVEYPDDREETFLDPFSAGGSAGGSAGG [r11_742_TrMRF] | -0.167 ± 0.13 | -0.118 ± 0.14 | -0.0666 ± 0.08
SAGGSAGGSAGGPDAAPSAVREYVLVTVPVYAENGTPLGPVTVVAPASVSLAAVADAVFNSAGGSAGGSAGG [r7_109_TrMRF] | 0.368 ± 0.19 | 0.292 ± 0.077 | 0.399 ± 0.11
SAGGSSSLAIITIKPKEIKSYYNPNNPVVVSEMEFEVDITIYSDNEISPEKVKELIEEIEKAFPGIKSAGGS [r8_306_TrMRF] | 2.88 ± 0.11 | 1.31 ± 0.051 | 2.32 ± 0.18
SAMPIESVEFHPEEGVITLRFRAPAHPDAEKFEIEVVVDGAEAGEIEVEVDPETNEVRALVRVKIPKGASAG [r14_244_TrMRF] | 4.23 ± 0.059 | 2.71 ± 0.1 | 3.7 ± 0.25
SAGGSAGGGMKFVKVTLEYAGGEVREYLFTTSSSDSTVEVVIEDLPPEKGARITEITEYPASLLSAGGSAGG [r6_530_JUSTAS] | 1.17 ± 0.16 | 0.746 ± 0.068 | 0.978 ± 0.21
